Consider 15 sequences from the Immune Epitope Database (IEDB).

In one test the target is HLA-B*07:02. Briefly: IEDB peptide-MHC binding, purified MHC/competitive/radioactivity; filed as Kd, often an IC50 or EC50 that approximates it; ≥ and ≤ were set here for values at or beyond the usual limits of such assays.
In another test the target is HLA-B*51:01. The description is as above.
The target in another test is HLA-A*03:01. Briefly: IEDB peptide-MHC binding, purified MHC/competitive/fluorescence; filed as Kd, often an IC50 or EC50 that approximates it; ≥ and ≤ were set here for values at or beyond the usual limits of such assays. As to conditions: source organism: Influenza A virus (A/swine/Italy/1509-6/97(H1N1)).
Another test addresses HLA-A*32:01. As to the kind of experiment: IEDB peptide-MHC binding, purified MHC/competitive/radioactivity; filed as Kd, often an IC50 or EC50 that approximates it; ≥ and ≤ were set here for values at or beyond the usual limits of such assays. As to conditions: source organism: Vaccinia virus WR.
For the next test, the target named is HLA-B*15:01. The test is described as above.
Another test concerns the target HLA-B*40:02. Described as above.
The target of a further test is HLA-B*44:03. Described as above.
For a further test, the target named is HLA-B*45:01. The description is as above.
The target of another test is HLA-B*18:01. The description is as above.
Another test deals with HLA-B*40:01. The description is as above.
In the next test the target is HLA-B*44:02. The description is as above.
Test [1] addresses HLA-A*24:02. Briefly: IEDB peptide-MHC binding, purified MHC/competitive/fluorescence; ≥ and ≤ were set here for values at or beyond the usual limits of such assays.
The target in a further test is HLA-A*11:01. Described as above.
The next test has as its target HLA-B*35:01. Briefly: IEDB peptide-MHC binding, purified MHC/competitive/radioactivity; filed as Kd, often an IC50 or EC50 that approximates it; ≥ and ≤ were set here for values at or beyond the usual limits of such assays.
Test [2] deals with HLA-A*24:02. Described as above. The conditions noted are these: source organism: Dengue virus 3 Martinique/1243/1999.
The target of another test is HLA-A*26:01. The test is described as above. The conditions noted are these: source organism: Dengue virus 3 Martinique/1243/1999.
The target in the next test is HLA-A*23:01. The test is described as above. As to conditions: source organism: Dengue virus 3 Martinique/1243/1999.
The next test deals with HLA-B*53:01. The description is as above. The conditions noted are these: source organism: Dengue virus 1 Brazil/97-11/1997.
The target in the next test is HLA-A*02:01. As to the kind of experiment: IEDB peptide-MHC binding, purified MHC/competitive/fluorescence; ≥ and ≤ were set here for values at or beyond the usual limits of such assays. As to conditions: source organism: Vaccinia virus.
The mark [3] stands for this setting: source organism: Dengue virus 2 16681-PDK53.
Setting [4] is: source organism: Mammarenavirus guanaritoense.
[5] abbreviates: source organism: SARS coronavirus Tor2.
Setting [6] is: source organism: Mammarenavirus lassaense.
The mark [7] stands for this setting: source organism: Zaire ebolavirus.
[8] abbreviates: source organism: Dengue virus 4 Philippines/H241/1956.
Where [9] appears, read: source organism: Dengue virus 3 China/80-2/1980.
The mark [10] stands for this setting: source organism: Dengue virus 1 Brazil/97-11/1997.
[11] abbreviates: source organism: Vaccinia virus.
Where [12] appears, read: source organism: Mammarenavirus juninense.
[13] abbreviates: source organism: Mammarenavirus machupoense.

Usually Kd stands for the constant that tells how readily two partners part at equilibrium. What is called IC50 is the concentration that inhibits the measured activity by half.

Consider QPENLEYTIV, for which the Kd with HLA-B*07:02 (setting [3]) is 4620 nM; with HLA-B*51:01 (setting [3]) it was not below 69600 nM.

In the test with HLA-A*03:01, ATYQRTRALVR displayed a Kd of 38.9 nM.

In the case of LLYTANFTF, the Kd with HLA-A*32:01 was 6.72 nM; with HLA-B*15:01 (source organism: Vaccinia virus WR) it was 2.43 nM.

As for SEDGLDGFDW, the Kd with HLA-B*40:02 (setting [4]) is 14400 nM; with HLA-B*44:03 (setting [4]) it was 21.2 nM; with HLA-B*45:01 (setting [4]) it was not below 56700 nM; with HLA-B*18:01 (setting [4]), not below 35300 nM; with HLA-B*40:01 (setting [4]), 14600 nM; in the test with HLA-B*44:02 (setting [4]), 21.3 nM.

Take GETPIAYRNV: the Kd in the test with HLA-B*40:02 (setting [5]) was 281 nM; with HLA-B*44:03 (setting [5]) it was not below 22700 nM; in the test with HLA-B*45:01 (setting [5]), 698 nM; with HLA-B*18:01 (setting [5]) it was not below 59500 nM; with HLA-B*40:01 (setting [5]), 1650 nM; with HLA-B*44:02 (setting [5]) it was not below 38100 nM.

VEAVMYMGTL: the Kd with HLA-B*40:02 (setting [5]) was 33.8 nM; with HLA-B*44:03 (setting [5]), 516 nM; in the test with HLA-B*45:01 (setting [5]), 508 nM; with HLA-B*18:01 (setting [5]) it was 7240 nM; in the test with HLA-B*40:01 (setting [5]), 22.2 nM; in the test with HLA-B*44:02 (setting [5]), 1540 nM.

On to SESDLEFSW, for which the Kd with HLA-B*40:02 (setting [6]) stood at 414 nM; with HLA-B*44:03 (setting [6]) it was 7.4 nM; in the test with HLA-B*45:01 (setting [6]) it was 1650 nM; with HLA-B*18:01 (setting [6]) it was 277 nM; in the test with HLA-B*40:01 (setting [6]) it was 14900 nM; with HLA-B*44:02 (setting [6]), 9.02 nM.

Take EYPPWLTEK: the IC50 was 9580 nM in the test with HLA-A*24:02 [1] (setting [7]) and not below 123000 nM with HLA-A*11:01 (setting [7]).

YKVASAGISY: the Kd in the test with HLA-B*15:01 (setting [8]) is 2.96 nM; in the test with HLA-B*35:01 (setting [8]), 70.4 nM.

As to RPINEKEENM, the figures for the Kd in the test with HLA-B*07:02 (setting [9]) and in the test with HLA-B*35:01 (setting [9]) were 222 nM and 1830 nM, respectively.

As to HMIAGVFFTF, the dissociation constant (Kd) with HLA-A*24:02 [2] is 98.9 nM; with HLA-A*26:01, not below 32800 nM; with HLA-A*23:01, 28.9 nM; with HLA-B*15:01 (source organism: Dengue virus 3 Martinique/1243/1999) it was 1.47 nM.

As for VPSIKSGNDI, the Kd with HLA-B*07:02 (setting [10]) was 1370 nM; with HLA-B*53:01 it was not below 47600 nM; with HLA-B*51:01 (setting [10]), not below 22000 nM.

For VSYNDYFNV, the IC50 is 743 nM with HLA-A*02:01, not below 77100 nM with HLA-A*24:02 [1] (setting [11]) and 14300 nM in the test with HLA-A*11:01 (setting [11]).

In the case of HDLPLLCNL, the Kd with HLA-B*40:02 (setting [12]) is 15.2 nM; with HLA-B*44:03 (setting [12]), 4110 nM; in the test with HLA-B*45:01 (setting [12]), not below 77700 nM; in the test with HLA-B*18:01 (setting [12]), 12200 nM; in the test with HLA-B*40:01 (setting [12]), not below 38100 nM; with HLA-B*44:02 (setting [12]) it was 1490 nM.

For the sequence EEPVSLLPLS, the Kd with HLA-B*40:02 (setting [13]) was 6150 nM; with HLA-B*44:03 (setting [13]), 1870 nM; in the test with HLA-B*45:01 (setting [13]), 565 nM; with HLA-B*18:01 (setting [13]), not below 38400 nM; in the test with HLA-B*40:01 (setting [13]), 7390 nM; in the test with HLA-B*44:02 (setting [13]), 5710 nM.
